T1: GRIP1_2, Q9Y3R0
T1 sequence (Q9Y3R0 145-248, limits assumed, looked up): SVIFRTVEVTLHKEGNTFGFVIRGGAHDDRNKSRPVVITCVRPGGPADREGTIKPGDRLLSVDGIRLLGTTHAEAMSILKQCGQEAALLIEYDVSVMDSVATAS

T2: SNTB1, Q13884
T2 sequence (Q13884 107-205, limits assumed, looked up): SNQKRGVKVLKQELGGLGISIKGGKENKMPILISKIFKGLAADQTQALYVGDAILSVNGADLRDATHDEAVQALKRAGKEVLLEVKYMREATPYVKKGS

T3: SNTG1, Q9NSN8
T3 sequence (Q9NSN8 52-150, limits assumed, looked up): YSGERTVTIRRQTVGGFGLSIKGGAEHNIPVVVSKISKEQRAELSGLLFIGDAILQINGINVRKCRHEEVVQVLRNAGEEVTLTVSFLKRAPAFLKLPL

T4: APBA3_1, O96018
T4 sequence (O96018 389-490, limits assumed, looked up): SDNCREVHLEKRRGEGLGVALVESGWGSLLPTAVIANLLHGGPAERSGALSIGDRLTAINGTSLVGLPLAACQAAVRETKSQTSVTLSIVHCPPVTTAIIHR

T5: TJP3_3, O95049
T5 sequence (O95049 375-456, limits assumed, looked up): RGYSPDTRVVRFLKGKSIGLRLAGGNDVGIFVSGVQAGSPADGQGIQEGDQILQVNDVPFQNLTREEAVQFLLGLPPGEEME

T6: GRIP1_5, Q9Y3R0
T6 sequence (Q9Y3R0 568-668, limits assumed, looked up): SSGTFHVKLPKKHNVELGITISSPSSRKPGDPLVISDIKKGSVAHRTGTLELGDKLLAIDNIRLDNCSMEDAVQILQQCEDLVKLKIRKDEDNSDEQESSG

T7: APBA1_1, Q02410
T7 sequence (Q02410 651-752, limits assumed, looked up): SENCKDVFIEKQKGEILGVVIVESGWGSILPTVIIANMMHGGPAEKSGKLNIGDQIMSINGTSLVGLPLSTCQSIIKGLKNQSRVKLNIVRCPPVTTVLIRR

T8: MPDZ_5, O75970
T8 sequence (O75970 695-796, limits assumed, looked up): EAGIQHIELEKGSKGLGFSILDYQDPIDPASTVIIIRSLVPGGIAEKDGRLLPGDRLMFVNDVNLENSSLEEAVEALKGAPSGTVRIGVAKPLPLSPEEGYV

T9: NHERF3_1, Q5T2W1
T9 sequence (Q5T2W1 4-100, limits assumed, looked up): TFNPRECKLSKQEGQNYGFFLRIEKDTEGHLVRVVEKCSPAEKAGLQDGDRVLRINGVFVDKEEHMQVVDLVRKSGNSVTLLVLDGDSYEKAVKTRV

T10: SNTG2, Q9NY99
T10 sequence (Q9NY99 68-166, limits assumed, looked up): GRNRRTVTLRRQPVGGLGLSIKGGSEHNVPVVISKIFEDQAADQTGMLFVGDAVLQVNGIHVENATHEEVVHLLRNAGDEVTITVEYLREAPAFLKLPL

T11: APBA2_1, Q99767
T11 sequence (Q99767 563-664, limits assumed, looked up): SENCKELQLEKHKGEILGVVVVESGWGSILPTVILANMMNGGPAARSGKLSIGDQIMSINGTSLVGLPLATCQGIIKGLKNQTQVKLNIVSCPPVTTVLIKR

T12: SHANK1, Q9Y566
T12 sequence (Q9Y566 658-767, limits assumed, looked up): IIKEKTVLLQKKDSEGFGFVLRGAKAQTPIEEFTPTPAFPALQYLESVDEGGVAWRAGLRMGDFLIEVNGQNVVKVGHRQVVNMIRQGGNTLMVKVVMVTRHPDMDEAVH


Each binder was assayed against T1, GRIP1_2, Q9Y3R0 (assay: holdup assay). Settings: plain residues with an end cap or a label only (N-terminal biotin on a linker: ado-ado).
Parameters: key: below the threshold = too weak to quantify, mostly under pKd 3.1 to 4

Binder	pKd
PMESGICTIV [TTC24, A2A3L6]	below the threshold
LETREPTNTL [GRIP1, Q9Y3R0]	below the threshold

The binders below were run against T2, SNTB1, Q13884 (assay: holdup assay). Settings: plain residues with an end cap or a label only (N-terminal biotin on a linker: ado-ado).
Parameters: key: below the threshold = too weak to quantify, mostly under pKd 3.1 to 4

Binder	pKd
PMESGICTIV [TTC24, A2A3L6]	4.58
LETREPTNTL [GRIP1, Q9Y3R0]	below the threshold

These binders were tested against T3, SNTG1, Q9NSN8 (assay: holdup assay). Settings: plain residues with an end cap or a label only (N-terminal biotin on a linker: ado-ado).
Parameters: key: below the threshold = too weak to quantify, mostly under pKd 3.1 to 4

Binder	pKd
PMESGICTIV [TTC24, A2A3L6]	4.06
LETREPTNTL [GRIP1, Q9Y3R0]	below the threshold

The binders below were run against PARD3_3, Q8TEW0 (assay: holdup assay). Settings: plain residues with an end cap or a label only (N-terminal biotin on a linker: ado-ado).
Parameters: key: below the threshold = too weak to quantify, mostly under pKd 3.1 to 4

Chain of PARD3_3, Q8TEW0 (Q8TEW0 582-685): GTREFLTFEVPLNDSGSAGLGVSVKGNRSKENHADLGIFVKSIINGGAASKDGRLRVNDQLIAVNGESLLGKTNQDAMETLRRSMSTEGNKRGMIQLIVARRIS

Binder	pKd
PMESGICTIV [TTC24, A2A3L6]	4.29
LETREPTNTL [GRIP1, Q9Y3R0]	below the threshold

These binders were tested against T4, APBA3_1, O96018 (assay: holdup assay). Settings: plain residues with an end cap or a label only (N-terminal biotin on a linker: ado-ado).
Parameters: key: below the threshold = too weak to quantify, mostly under pKd 3.1 to 4

Binder	pKd
PMESGICTIV [TTC24, A2A3L6]	below the threshold
LETREPTNTL [GRIP1, Q9Y3R0]	below the threshold

Each binder was assayed against T5, TJP3_3, O95049 (assay: holdup assay). Settings: plain residues with an end cap or a label only (N-terminal biotin on a linker: ado-ado).
Parameters: key: below the threshold = too weak to quantify, mostly under pKd 3.1 to 4

Binder	pKd
PMESGICTIV [TTC24, A2A3L6]	below the threshold
LETREPTNTL [GRIP1, Q9Y3R0]	below the threshold

These binders were tested against GOPC, Q9HD26 (assay: holdup assay). Settings: plain residues with an end cap or a label only (N-terminal biotin on a linker: ado-ado).
Parameters: key: below the threshold = too weak to quantify, mostly under pKd 3.1 to 4

Binder	pKd
PMESGICTIV [TTC24, A2A3L6]	4.4
LETREPTNTL [GRIP1, Q9Y3R0]	below the threshold

The binders below were run against T6, GRIP1_5, Q9Y3R0 (assay: holdup assay). Settings: plain residues with an end cap or a label only (N-terminal biotin on a linker: ado-ado).
Parameters: key: below the threshold = too weak to quantify, mostly under pKd 3.1 to 4

Binder	pKd
PMESGICTIV [TTC24, A2A3L6]	below the threshold
LETREPTNTL [GRIP1, Q9Y3R0]	below the threshold

These binders were tested against T7, APBA1_1, Q02410 (assay: holdup assay). Settings: plain residues with an end cap or a label only (N-terminal biotin on a linker: ado-ado).
Parameters: key: below the threshold = too weak to quantify, mostly under pKd 3.1 to 4

Binder	pKd
PMESGICTIV [TTC24, A2A3L6]	below the threshold
LETREPTNTL [GRIP1, Q9Y3R0]	below the threshold

What follows are binders tested against T8, MPDZ_5, O75970 (assay: holdup assay). Settings: plain residues with an end cap or a label only (N-terminal biotin on a linker: ado-ado).
Parameters: key: below the threshold = too weak to quantify, mostly under pKd 3.1 to 4

Binder	pKd
PMESGICTIV [TTC24, A2A3L6]	3.56
LETREPTNTL [GRIP1, Q9Y3R0]	below the threshold

Each binder was assayed against Inadl_8, Q8NI35 (assay: holdup assay). Settings: plain residues with an end cap or a label only (N-terminal biotin on a linker: ado-ado).
Parameters: key: below the threshold = too weak to quantify, mostly under pKd 3.1 to 4

Chain of Inadl_8, Q8NI35 (Q8NI35 1425-1530): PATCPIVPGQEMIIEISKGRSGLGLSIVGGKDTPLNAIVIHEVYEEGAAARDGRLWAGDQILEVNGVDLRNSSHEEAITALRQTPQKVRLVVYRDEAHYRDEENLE

Binder	pKd
PMESGICTIV [TTC24, A2A3L6]	4.19
LETREPTNTL [GRIP1, Q9Y3R0]	below the threshold

These binders were tested against DLG2_3, Q15700 (assay: holdup assay). Settings: plain residues with an end cap or a label only (N-terminal biotin on a linker: ado-ado).
Parameters: key: below the threshold = too weak to quantify, mostly under pKd 3.1 to 4

Binder	pKd
PMESGICTIV [TTC24, A2A3L6]	below the threshold
LETREPTNTL [GRIP1, Q9Y3R0]	below the threshold

What follows are binders tested against GRID2IP_2, A4D2P6 (assay: holdup assay). Settings: plain residues with an end cap or a label only (N-terminal biotin on a linker: ado-ado).
Parameters: key: below the threshold = too weak to quantify, mostly under pKd 3.1 to 4

Chain of GRID2IP_2, A4D2P6 (A4D2P6 272-370): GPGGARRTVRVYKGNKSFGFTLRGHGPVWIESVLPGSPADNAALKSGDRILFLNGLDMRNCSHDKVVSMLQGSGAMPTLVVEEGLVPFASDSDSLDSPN

Binder	pKd
PMESGICTIV [TTC24, A2A3L6]	4.17
LETREPTNTL [GRIP1, Q9Y3R0]	below the threshold

The binders below were run against MAGI1_1, Q96QZ7 (assay: holdup assay). Settings: plain residues with an end cap or a label only (N-terminal biotin on a linker: ado-ado).
Parameters: key: below the threshold = too weak to quantify, mostly under pKd 3.1 to 4

Chain of MAGI1_1, Q96QZ7 (Q96QZ7 1-106): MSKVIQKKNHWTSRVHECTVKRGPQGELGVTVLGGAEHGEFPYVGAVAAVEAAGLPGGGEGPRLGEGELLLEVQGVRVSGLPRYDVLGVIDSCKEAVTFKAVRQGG

Binder	pKd
PMESGICTIV [TTC24, A2A3L6]	below the threshold
LETREPTNTL [GRIP1, Q9Y3R0]	below the threshold

Each binder was assayed against GORASP1, Q9BQQ3 (assay: holdup assay). Settings: plain residues with an end cap or a label only (N-terminal biotin on a linker: ado-ado).
Parameters: key: below the threshold = too weak to quantify, mostly under pKd 3.1 to 4

Chain of GORASP1, Q9BQQ3 (Q9BQQ3 1-208): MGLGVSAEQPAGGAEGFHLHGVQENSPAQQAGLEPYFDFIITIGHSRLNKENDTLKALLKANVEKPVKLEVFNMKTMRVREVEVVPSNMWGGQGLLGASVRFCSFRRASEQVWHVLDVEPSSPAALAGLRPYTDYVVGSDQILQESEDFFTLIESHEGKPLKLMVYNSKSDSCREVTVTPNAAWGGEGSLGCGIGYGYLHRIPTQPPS

Binder	pKd
PMESGICTIV [TTC24, A2A3L6]	4.72
LETREPTNTL [GRIP1, Q9Y3R0]	below the threshold

The binders below were run against T9, NHERF3_1, Q5T2W1 (assay: holdup assay). Settings: plain residues with an end cap or a label only (N-terminal biotin on a linker: ado-ado).
Parameters: key: below the threshold = too weak to quantify, mostly under pKd 3.1 to 4

Binder	pKd
PMESGICTIV [TTC24, A2A3L6]	4.02
LETREPTNTL [GRIP1, Q9Y3R0]	below the threshold

Each binder was assayed against GRIP2_7, Q9C0E4 (assay: holdup assay). Settings: plain residues with an end cap or a label only (N-terminal biotin on a linker: ado-ado).
Parameters: key: below the threshold = too weak to quantify, mostly under pKd 3.1 to 4

Chain of GRIP2_7, Q9C0E4 (Q9C0E4 934-1023): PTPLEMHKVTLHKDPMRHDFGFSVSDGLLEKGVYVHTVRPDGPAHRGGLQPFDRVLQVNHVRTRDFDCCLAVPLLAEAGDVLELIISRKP

Binder	pKd
PMESGICTIV [TTC24, A2A3L6]	below the threshold
LETREPTNTL [GRIP1, Q9Y3R0]	below the threshold

Each binder was assayed against T10, SNTG2, Q9NY99 (assay: holdup assay). Settings: plain residues with an end cap or a label only (N-terminal biotin on a linker: ado-ado).
Parameters: key: below the threshold = too weak to quantify, mostly under pKd 3.1 to 4

Binder	pKd
PMESGICTIV [TTC24, A2A3L6]	4.1
LETREPTNTL [GRIP1, Q9Y3R0]	below the threshold

What follows are binders tested against GRIP2_6, Q9C0E4 (assay: holdup assay). Settings: plain residues with an end cap or a label only (N-terminal biotin on a linker: ado-ado).
Parameters: key: below the threshold = too weak to quantify, mostly under pKd 3.1 to 4

Chain of GRIP2_6, Q9C0E4 (Q9C0E4 648-740): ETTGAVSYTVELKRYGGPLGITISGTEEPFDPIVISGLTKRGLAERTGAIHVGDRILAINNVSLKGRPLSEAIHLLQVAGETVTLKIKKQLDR

Binder	pKd
PMESGICTIV [TTC24, A2A3L6]	below the threshold
LETREPTNTL [GRIP1, Q9Y3R0]	below the threshold

What follows are binders tested against AHNAK1, Q09666 (assay: holdup assay). Settings: plain residues with an end cap or a label only (N-terminal biotin on a linker: ado-ado).
Parameters: key: below the threshold = too weak to quantify, mostly under pKd 3.1 to 4

Chain of AHNAK1, Q09666 (Q09666 4-100): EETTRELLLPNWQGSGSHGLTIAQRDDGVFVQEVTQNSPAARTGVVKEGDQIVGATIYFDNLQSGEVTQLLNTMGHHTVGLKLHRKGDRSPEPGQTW

Binder	pKd
PMESGICTIV [TTC24, A2A3L6]	below the threshold
LETREPTNTL [GRIP1, Q9Y3R0]	below the threshold

The binders below were run against T11, APBA2_1, Q99767 (assay: holdup assay). Settings: plain residues with an end cap or a label only (N-terminal biotin on a linker: ado-ado).
Parameters: key: below the threshold = too weak to quantify, mostly under pKd 3.1 to 4

Binder	pKd
PMESGICTIV [TTC24, A2A3L6]	below the threshold
LETREPTNTL [GRIP1, Q9Y3R0]	below the threshold

What follows are binders tested against T12, SHANK1, Q9Y566 (assay: holdup assay). Settings: plain residues with an end cap or a label only (N-terminal biotin on a linker: ado-ado).
Parameters: key: below the threshold = too weak to quantify, mostly under pKd 3.1 to 4

Binder	pKd
PMESGICTIV [TTC24, A2A3L6]	4.04
LETREPTNTL [GRIP1, Q9Y3R0]	below the threshold

The binders below were run against DLG1_3, Q12959 (assay: holdup assay). Settings: plain residues with an end cap or a label only (N-terminal biotin on a linker: ado-ado).
Parameters: key: below the threshold = too weak to quantify, mostly under pKd 3.1 to 4

Chain of DLG1_3, Q12959 (Q12959 457-571): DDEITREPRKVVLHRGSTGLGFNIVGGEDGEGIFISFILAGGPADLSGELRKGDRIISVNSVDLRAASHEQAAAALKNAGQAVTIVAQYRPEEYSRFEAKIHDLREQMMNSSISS

Binder	pKd
PMESGICTIV [TTC24, A2A3L6]	3.53
LETREPTNTL [GRIP1, Q9Y3R0]	below the threshold

Each binder was assayed against Inadl_9, Q8NI35 (assay: holdup assay). Settings: plain residues with an end cap or a label only (N-terminal biotin on a linker: ado-ado).
Parameters: key: below the threshold = too weak to quantify, mostly under pKd 3.1 to 4

Chain of Inadl_9, Q8NI35 (Q8NI35 1530-1615): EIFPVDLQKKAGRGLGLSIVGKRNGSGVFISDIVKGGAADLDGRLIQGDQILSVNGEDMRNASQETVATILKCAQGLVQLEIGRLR

Binder	pKd
PMESGICTIV [TTC24, A2A3L6]	4.06
LETREPTNTL [GRIP1, Q9Y3R0]	below the threshold
